Molecular target: T1, human B7-H3 protein expressed on transfected 293 cells (human, UniProt Q5ZPR3 29-534)
T1 construct: also called B7-H3/293 cells
T1 sequence: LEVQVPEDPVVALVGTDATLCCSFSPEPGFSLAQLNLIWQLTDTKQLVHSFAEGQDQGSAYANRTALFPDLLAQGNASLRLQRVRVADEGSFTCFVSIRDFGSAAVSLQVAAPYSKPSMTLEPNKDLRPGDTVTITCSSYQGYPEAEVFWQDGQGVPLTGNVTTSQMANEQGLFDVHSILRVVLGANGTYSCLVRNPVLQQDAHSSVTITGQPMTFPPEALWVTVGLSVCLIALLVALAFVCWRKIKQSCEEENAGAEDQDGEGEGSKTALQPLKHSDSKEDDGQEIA
Assay: FACS on 293 cells transfected with B7-H3
Excerpt: It has been reported that both CTLA-4 nd ICOS can be induced to express on the surface of activated T cells, while CD28 expresses constitutively.

B1: ICOSIg (Fc fusion, UniProt Q9Y6W8 21-140, looked up)
chain: EINGSANYEMFIFHNGGVQILCKYPDIVQQFKMQLLKGGQILCDLTKTKGSGNTVSIKSLKFCHSQLSNNSVSFFLYNLDHSHANYYFCNLSIFDPPPFKVTLTGGYLHIYESQLCCQLK
notes: extracellular domain; not shown: Fc constant region of mouse IgG2a, inferred from 'similar methods'
binding result: no binding

Source: patent US20020198143A1 (Human Genome Sciences, published 2002)
